Test results published in patent US7419813B2, “Fructosyl peptide oxidase” (Kikkoman Corporation, priority 2001, dated 2008).

Format: physicochemical
Conditions: pH 8
Experimental: For example, 200 mM potassium phosphate buffer (pH 8.0) is used for a treatment at 45° C. for 10 minutes to determine the remaining activities of the oxidases of the invention. The oxidases of the invention having high stability at a high temperature range are particularly preferable for industrial use. The oxidases of the invention may, for example, have a remaining activity of 50% or higher, preferably 70% or higher, and more preferably 80% or higher under the above-described conditions. For example, 200 mM potassium phosphate buffer (pH 8.0) is used for a treatment at 45° C. for 10 minutes. Then, the remaining activities of the enzymes of the invention are determined. The oxidases of the invention having high stability at a high temperature range are particularly preferable for industrial use. The oxidases of the invention that have less action on ε-fructosyl lysine may, for example, have a remaining activity of 50% or higher, preferably 70% or higher, more preferably 80% or higher under the above-described conditions. […] Next, the physiochemical properties of these oxidases were determined. […] Each crude enzyme sample was heat-treated at 45° C. for 10 minutes, and then its activity for fructosyl valyl histidine was determined and compared to the activity before treatment. […]

B1: Eupenicillium terrenum ATCC 18547: fructosyl peptide oxidase produced by Eupenicillium terrenum ATCC 18547 with less action on ε-fructosyl lysine; amino acid sequence SEQ ID NO: 3 (protein, listed as Eupenicillium terrenum)
chain: MAHSRASTKVVVVGGGGTIGSSTALHLIRSGYTPSNITVLDVYKTPSLQSAGHDLNKIMGIRLRNGPDLQLSLESLDMWQNDELFKPFFHQVGMIDCSSSKEGIENLRRKYQTLLDAGIGLEKTNVWLESEDEILAKAPNFTREQVKGWKGLFCTDGGWLAAAKAINAIGIFLQDKGVKFGFGGAGTFQQPLFAADGKTCIGLETTDGTKYFADKVVLAAGAWSPTLVDLEDQCVSKAWVFAHIQLTPKEADAYKNVPVVYDGEYGFFFEPNEYGVIKVCDEFPGFSRFKLHQPYGAASPKMISVPRSHAKHPTDTYPDASEVTIRKAIARFLPEFKDKELFNRTMCWCTDTADANLLICEHPKWKNFILATGDSGHSFKLLPNIGKHVVELLEGSLSQEMAGAWRWRPGGDALRSRRGAPAKDLAEMPGWKHDAHL
remaining activity following heat treatment at 45° C. for 10 minutes: approximately 100%
